Target: the molecule itself
Assay: native gel or EMSA

B1: C-terminal truncated DDX3X (domain or fragment, human, UniProt O00571 1-582, looked up)
chain: MSHVAVENALGLDQQFAGLDLNSSDNQSGGSTASKGRYIPPHLRNREATKGFYDKDSSGWSSSKDKDAYSSFGSRSDSRGKSSFFSDRGSGSRGRFDDRGRSDYDGIGSRGDRSGFGKFERGGNSRWCDKSDEDDWSKPLPPSERLEQELFSGGNTGINFEKYDDIPVEATGNNCPPHIESFSDVEMGEIIMGNIELTRYTRPTPVQKHAIPIIKEKRDLMACAQTGSGKTAAFLLPILSQIYSDGPGEALRAMKENGRYGRRKQYPISLVLAPTRELAVQIYEEARKFSYRSRVRPCVVYGGADIGQQIRDLERGCHLLVATPGRLVDMMERGKIGLDFCKYLVLDEADRMLDMGFEPQIRRIVEQDTMPPKGVRHTMMFSATFPKEIQMLARDFLDEYIFLAVGRVGSTSENITQKVVWVEESDKRSFLLDLLNATGKDSLTLVFVETKKGADSLEDFLYHEGYACTSIHGDRSQRDREEALHQFRSGKSPILVATAVAARGLDISNVKHVINFDLPSDIEEYVHRIGRTGRVGNLGLATSFFNERNINITKDLLDLLVEAKQEVPSWLENMAYEHHYKG
- binding result: binds

Source: publication PMC8154130 (ACS Omega, 2021)
